Laboratory results reported in patent US20240026024A1 (SHANGHAI HUAOTA BIOPHARMACEUTICAL, published 2024).
Where two headings read alike, the source gives them in different places. One block for each binder: values may come before it.

Tests used:
[1] = biological target: T1, human CD73 protein (ACRO Biosystems, Cat No. CD3-H52H7) (human, UniProt P21589 27-547); test: cell-based or functional assay
T1 sequence: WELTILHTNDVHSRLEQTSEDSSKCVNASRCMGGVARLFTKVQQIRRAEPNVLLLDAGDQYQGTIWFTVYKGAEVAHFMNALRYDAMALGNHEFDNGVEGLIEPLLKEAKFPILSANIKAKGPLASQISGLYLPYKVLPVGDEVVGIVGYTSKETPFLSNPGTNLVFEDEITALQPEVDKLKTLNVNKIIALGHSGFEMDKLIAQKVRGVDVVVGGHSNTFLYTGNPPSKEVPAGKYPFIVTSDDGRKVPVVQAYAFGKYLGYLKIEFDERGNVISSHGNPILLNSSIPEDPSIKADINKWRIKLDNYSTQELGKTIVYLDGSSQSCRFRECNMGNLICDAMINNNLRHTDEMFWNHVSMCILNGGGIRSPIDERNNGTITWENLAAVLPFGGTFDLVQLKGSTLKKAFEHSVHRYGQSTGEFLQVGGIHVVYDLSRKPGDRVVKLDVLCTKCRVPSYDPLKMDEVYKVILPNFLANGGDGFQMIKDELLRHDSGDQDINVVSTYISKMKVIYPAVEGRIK

[2] = biological target: T2, mouse CD73/NT5E (ACRO Biosystems, Cat No. CD3-M52H9) (mouse, UniProt Q61503 29-551); test: SPR (Biacore T200), antibody captured on protein A chip
T2 construct: Bought protein
T2 sequence (looked up): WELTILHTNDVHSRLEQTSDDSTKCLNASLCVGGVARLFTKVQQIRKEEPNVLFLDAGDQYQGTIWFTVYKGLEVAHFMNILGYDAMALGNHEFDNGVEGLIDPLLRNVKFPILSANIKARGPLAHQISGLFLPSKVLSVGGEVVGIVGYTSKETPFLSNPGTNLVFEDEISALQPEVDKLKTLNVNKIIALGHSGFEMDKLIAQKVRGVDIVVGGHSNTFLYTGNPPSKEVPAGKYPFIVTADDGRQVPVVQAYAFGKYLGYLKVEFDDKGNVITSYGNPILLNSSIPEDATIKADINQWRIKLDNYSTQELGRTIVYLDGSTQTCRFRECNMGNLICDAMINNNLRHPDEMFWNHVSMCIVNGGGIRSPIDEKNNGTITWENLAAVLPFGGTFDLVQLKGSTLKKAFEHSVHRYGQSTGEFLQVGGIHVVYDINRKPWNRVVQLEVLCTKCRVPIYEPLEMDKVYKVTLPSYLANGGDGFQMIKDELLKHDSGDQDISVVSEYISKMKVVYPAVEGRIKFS
Protocol: (§1) The temperatures of the sample chamber and flow path were set at 25° C. The protein A chips separately captured the antigen-binding proteins as ligands, which were immobilized at about 100 RU. […] Ten mM Glycine, pH 1.5, was regenerated for 60 s at a flow rate of 50 L/min for multiple cycle kinetic detection. The binding rate constant (ka), dissociation rate constant (kd) and dissociation equilibrium rate constant (KD) were fitted using the Fit local mode of a 1:1 binding model.

[3] = biological target: T3, rat CD73 (Novoprotein, Cat No. CB16) (rat, UniProt P21588 29-551, limits assumed); test: as above
T3 construct: Bought protein
T3 sequence (looked up): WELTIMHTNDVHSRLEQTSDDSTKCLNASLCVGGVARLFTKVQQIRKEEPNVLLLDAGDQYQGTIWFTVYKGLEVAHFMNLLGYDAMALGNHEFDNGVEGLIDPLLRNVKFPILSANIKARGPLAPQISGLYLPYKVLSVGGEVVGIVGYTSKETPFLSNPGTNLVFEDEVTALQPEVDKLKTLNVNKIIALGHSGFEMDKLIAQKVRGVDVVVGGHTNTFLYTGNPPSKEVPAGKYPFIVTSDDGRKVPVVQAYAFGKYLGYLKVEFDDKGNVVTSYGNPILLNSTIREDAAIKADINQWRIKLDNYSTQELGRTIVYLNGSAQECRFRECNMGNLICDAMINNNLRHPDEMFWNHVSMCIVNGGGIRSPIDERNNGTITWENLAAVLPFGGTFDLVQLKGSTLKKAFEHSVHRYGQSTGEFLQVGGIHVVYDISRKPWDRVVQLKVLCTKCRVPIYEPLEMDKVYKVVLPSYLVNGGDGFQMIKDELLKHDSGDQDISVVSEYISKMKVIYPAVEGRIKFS
Protocol: as §1

[4] = biological target: T4, human CD73 on the cell surface (human, UniProt P21589 27-549); test: flow cytometry on CHOK1-huCD73-3F4 cells, PE anti-human Fc
T4 construct: also called CHOK1-huCD73-3F4 cells; human CD73-expressing cells
T4 sequence: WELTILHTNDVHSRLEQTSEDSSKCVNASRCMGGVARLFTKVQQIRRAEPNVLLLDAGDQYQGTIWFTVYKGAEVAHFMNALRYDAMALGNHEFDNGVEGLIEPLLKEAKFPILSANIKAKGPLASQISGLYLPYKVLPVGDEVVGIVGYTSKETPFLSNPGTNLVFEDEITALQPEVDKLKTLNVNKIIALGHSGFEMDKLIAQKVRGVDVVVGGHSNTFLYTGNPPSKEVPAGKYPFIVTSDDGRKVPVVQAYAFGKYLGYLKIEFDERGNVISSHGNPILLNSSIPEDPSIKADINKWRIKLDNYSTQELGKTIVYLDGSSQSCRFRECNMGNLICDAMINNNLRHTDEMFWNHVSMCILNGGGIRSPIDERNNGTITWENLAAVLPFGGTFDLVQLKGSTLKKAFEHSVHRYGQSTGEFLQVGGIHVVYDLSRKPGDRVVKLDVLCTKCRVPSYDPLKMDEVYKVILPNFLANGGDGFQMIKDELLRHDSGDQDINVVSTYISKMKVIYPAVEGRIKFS
Protocol: (§2) All the antigen-binding proteins were diluted to 30 μg/ml with PBS solution containing 1% BSA (1% BSA/PBS), diluted at 3-fold into 11 gradients and then added to a 96-well U-shaped plate at 20 μL/well, and negative control (1% BSA/PBS was added only) was set up simultaneously. The suspension of human CD73-expressing cells (CHOK1-huCD73-3F4, Huabo Biopharm) in the logarithmic growth phase were collected and centrifuged at 1000 rpm for 5 min, and the culture medium was discarded; then the cells were resuspended with 1% BSA/PBS to a viable cell density of 1×10⁶/mL, and then added into the 96-well U-shaped plate already added with anti-CD73 antigen-binding protein at 20 μL (2×10⁴ cells)/well for reaction at room temperature for 30 min. […] After the reaction, the cells in the 96-well U-shaped plate were resuspended with 1% BSA/PBS and centrifuged at 300 g for 3 min and the supernatant was discarded; after washing in this manner 3 times, and the cells were finally resuspended with 1% BSA/PBS at 100 μL/well, and the fluorescence intensity of the PE channel was measured with a flow cytometer (BD, #Canto II).

[5] = biological target: T1, human CD73 protein (ACRO Biosystems, …); test: SPR (Biacore T200), antibody captured on protein A chip, CD73 as analyte, 1:1 model
Protocol: as §1, with “μL/min” for “L/min”

[6] = biological target: T4, human CD73 on the cell surface; test: cell-based or functional assay
[7] = biological target: T4, human CD73 on the cell surface; test: flow cytometry on CHOK1-huCD73-3F4 cells, PE anti-human Fc; remark: listed apart in the source
Protocol: as §2

[8] = biological target: T4, human CD73 on the cell surface; test: cell-based or functional assay; remark: listed apart in the source

EC50(µg/mL), inhibition of recombinant CD73 (CellTiter-Glo) [1]: 0.681 µg/mL | binding result [2]: no binding (tested: up to 50 nM analyte) | binding result [3]: no binding (tested: up to 50 nM analyte) | EC50 [4]: 0.646 µg/mL | Kd [5]: 1.5 nM | koff [5]: 0.000493 s⁻¹ | kon [5]: 329000 M⁻¹ s⁻¹
B1: 900694 (antibody, V domains shown)
VH: EVQLVESGGGLVKPGGSLRLSCAASGFTFSKYAMSWVRQAPGKGLEWVAEISSGGGYINYPDTVTGRFTISRDNAKNSLYLQMNSLRAEDTAVYYCARAIYYYGSSYNYYAMDYWGQGTTVTVSS
VL: DIQMTQSPSSLSASVGDRVTITCRASQDVGTAEAWYQQKPGKAPKLLIYWASTRHTGVPDRFSGSGSGTDFTLTISSLQPEDFATYYCQQYSSYPLTFGQGTKLEIK
notes: Constant regions are not restated; it was detected with anti-human Fc and captured on protein A

EC50(µg/mL), inhibition of enzyme activity of CD73 on CHOK1-huCD73-3F4 cells [6]: 1.62 µg/mL | EC50 [7]: 2.14 µg/mL
B2: 900565 (antibody, V domains shown)
VH: QAYLQQSGAELVRPGASVKMSCKASGYTFTSYNMHWVKQTPRQGLEWIGAIYPGNGDTSYNQKFKGKATLNVDKSSSTAYMQLSSLTSEDSAVYFCARWGYGSNYAWYFDIWGTGTTVTVSS
VL: DIQMTQSPASLSASVGETVTITCRTSGNIHNYLVWYQQKQGKSPQLLVFNAKTLADGVPSRFSGSGSGTQYSLKINSLQPEDFGSYYCQHFWSTPFTFGSGTKLEIK
notes: Chimeric antibody derived from hybridoma 115B10; it was detected with anti-human Fc

Endocytosis efficiency (%) [8]: 44.2%
B3: 900222 (antibody, from another filing, V domains shown)
VH: QVQLVESGGGVVQPGRSLRLSCAASGFTFSNYGMHWVRQAPGKGLEWVAVILYDGSNKYYPDSVKGRFTISRDNSKNTLYLQMNSLRAEDTAVYYCARGGSSWYPDSFDIWGQGTMVTVSS
VL: DIQMTQSPSSLSASVGDRVTITCRASQGISSWLAWYQQKPEKAPKSLIYAASSLQSGVPSRFSGSGSGTDFTLTISSLQPEDFATYYCQQYNSYPLTFGGGTKVEIKR
